Measurements published in WO2003050283A2.
Where two headings read alike, the source gives them in different places.

How the values were obtained:
[1] = target: chicken lysozyme (chicken) (UniProt P00698)
[2] = target: ELK (3% skim milk powder solution); assay: ELISA, ELK-coated control well; ~5 ng iMab per well, urea-purified; anti-VSV-HRP
[3] = target: chicken lysozyme (chicken) (UniProt P00698); assay: ELISA, lysozyme (100 ug/ml) coated well blocked with ELK; ~50 ng iMab per well, urea-purified; anti-VSV-HRP
[4] = target: chicken lysozyme (chicken) (UniProt P00698); assay: ELISA, lysozyme (100 ug/ml) coated well blocked with ELK; ~50 ng iMab per well, purified by heat (60 C) solubilisation; anti-VSV-HRP

Sequence of UniProt P00698 (P00698 19-147 limits assumed): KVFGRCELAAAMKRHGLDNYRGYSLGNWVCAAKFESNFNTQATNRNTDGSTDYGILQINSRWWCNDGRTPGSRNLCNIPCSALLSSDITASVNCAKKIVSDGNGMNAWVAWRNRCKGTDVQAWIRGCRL

B1: iMab1200 (designed binder)
chain: HGLPMEKRGNFIVGQNCSLTCPASGYTIGPQCVFNCYFNSALAFSTENMGEWTLDMVFSDAGIYTMCAADSTIYASYYECGHGLSTGGYGYNPVSLGSFWDSP
Q: Which results are given for B1?
A: Absorbtion (450 nm) (absorbance (450 nm)) [1]: 0.061; Absorbtion (450 nm) (absorbance (450 nm)) [2]: 0.04

B2: iMab100 (designed binder, not shown: small tags and cut ends)
chain: NVKLVEKGGNFVENDDDLKLTCRAEGYTIGPYCMGWFRQAPNDDSTNVATINMGGGITYYGDSVKERFDIRRDNASNTVTLSMDDLQPEDSAEYNCAGDSTIYASYYECGHGLSTGGYGYDSHYRGQGTDVTVSS
Q: Which Absorbtion (450 nm) (absorbance (450 nm)) [3] does the source give for B2 here?
A: 0.494

Q: What about the Absorbtion (450 nm) (absorbance (450 nm)) [4] of the same binder?
A: 0.369
